Paper PMC4004102

Biological target: AgrC-I (wild type) dimer embedded in nanodiscs (Staphylococcus aureus)
Assay: fluorescence polarisation

Substance	Kd
AIP-I (native autoinducing peptide of agr group 1)	63 nM
AIP-II (native autoinducing peptide of agr group 2)	160 nM
